Results: patent publication US20230265151A1, “GIP/GLP1 CO-AGONIST COMPOUNDS” (priority 2020, published 2023)
Where a chain is given by its changes, count along the chain named.

B1: Y-Aib-EGT-αMeF(2F)-TSD-4Pal-SI-αMeL-LD-Orn-K((2-[2-(2-Amino-ethoxy)-ethoxy]-acetyl)-(εK)-(γ-Glu)-CO-(CH2)12-CO2H)AQ-Aib-EFI-(D-Glu)-αMeY-LIEGGK((2-[2-(2-Amino-e … (peptide)
peptide: YXEGTXTSDXSIXLDXKAQXEFIXXLIEGGKSSGAPPPS
modifications: Aib2, αMeF(2F)6, 4Pal10, αMeL13, Orn16, Aib20, D-Glu24, αMeY25; acylated K17, K31 (groups as in name); C-terminal amide
B2: Y-Aib-EGT-αMeF(2F)-TSD-4Pal-SI-αMeL-LD-Orn-K((εK)-(γ-Glu)-CO-(CH2)12-CO2H)AQ-Aib-EFI-(D-Glu)-αMeY-LIEGGK((εK)-(γ-Glu)-CO-(CH2)12-CO2H)SSGAPPPS-NH2 (peptide)
peptide: B1 peptide
modifications: Aib2, αMeF(2F)6, 4Pal10, αMeL13, Orn16, Aib20, D-Glu24, αMeY25; acylated K17, K31 (groups as in name); C-terminal amide
B3: Y-Aib-EGT-αMeF(2F)-TSD-4Pal-SI-αMeL-LD-Orn-K((2-[2-(2-Amino-ethoxy)-ethoxy]-acetyl)2-(γ-Glu)-CO-(CH2)12-CO2H)AQ-Aib-EFIK((2-[2-(2-Amino-ethoxy)-ethoxy]-acetyl)2 … (peptide)
peptide: B1 peptide with X24K, K31P
modifications: Aib2, αMeF(2F)6, 4Pal10, αMeL13, Orn16, Aib20, αMeY25; acylated K17, K24 (groups as in name); C-terminal amide
B4: Y-Aib-EGT-αMeF(2F)-TSD-4Pal-SI-αMeL-LD-Orn-K((2-[2-(2-Amino-ethoxy)-ethoxy]-acetyl)2-(γ-Glu)-(4-(4-tert-butylphenyl)butanoyl))AQ-Aib-K((2-[2-(2-Amino-ethoxy)-et … (peptide)
peptide: B1 peptide with E21K, K31P
modifications: Aib2, αMeF(2F)6, 4Pal10, αMeL13, Orn16, Aib20, D-Glu24, αMeY25; acylated K17, K21 (groups as in name); C-terminal amide
B5: Y-Aib-EGT-αMeF(2F)-TSD-4Pal-SI-αMeL-LD-Orn-K((2-[2-(2-Amino-ethoxy)-ethoxy]-acetyl)2-(γ-Glu)-(4-(4-tert-butylphenyl)butanoyl))AQ-Aib-EFI-(D-Glu)-αMeY-LIK((2-[2- … (peptide)
peptide: B1 peptide with E28K, K31P
modifications: Aib2, αMeF(2F)6, 4Pal10, αMeL13, Orn16, Aib20, D-Glu24, αMeY25; acylated K17, K28 (groups as in name); C-terminal amide
B6: Y-Aib-EGT-αMeF(2F)-TSD-4Pal-SI-αMeL-LD-Orn-K((2-[2-(2-Amino-ethoxy)-ethoxy]-acetyl)2-CO-(CH2)12-CO2H)AQ-Aib-K((2-[2-(2-Amino-ethoxy)-ethoxy]-acetyl)2-CO-(CH2)12 … (peptide)
peptide: B1 peptide with E21K, K31P
modifications: Aib2, αMeF(2F)6, 4Pal10, αMeL13, Orn16, Aib20, D-Glu24, αMeY25; acylated K17, K21 (groups as in name); C-terminal amide
B7: Y-Aib-EGT-αMeF(2F)-TSD-4Pal-SI-αMeL-LD-Orn-K((2-[2-(2-Amino-ethoxy)-ethoxy]-acetyl)2-(εK)-CO-(CH2)12-CO2H)AQ-Aib-EFI-(D-Glu)-αMeY-LIEGGK((2-[2-(2-Amino-ethoxy)- … (peptide)
peptide: B1 peptide
modifications: Aib2, αMeF(2F)6, 4Pal10, αMeL13, Orn16, Aib20, D-Glu24, αMeY25; acylated K17, K31 (groups as in name); C-terminal amide
B8: Y-Aib-EGT-αMeF(2F)-TSD-4Pal-SI-αMeL-LD-Orn-K((2-[2-(2-Amino-ethoxy)-ethoxy]-acetyl)-(γ-Glu)-CO-(CH2)10-CH3)AQ-Aib-EFI-(D-Glu)-αMeY-LIEGGK((2-[2-(2-Amino-ethoxy) … (peptide)
peptide: B1 peptide
modifications: Aib2, αMeF(2F)6, 4Pal10, αMeL13, Orn16, Aib20, D-Glu24, αMeY25; acylated K17, K31 (groups as in name); C-terminal amide
B9: Y-Aib-EGT-αMeF(2F)-TSD-4Pal-SI-αMeL-LD-Orn-K((εK)-(2-[2-(2-Amino-ethoxy)-ethoxy]-acetyl)-(γ-Glu)-CO-(CH2)12-CO2H)AQ-Aib-EFI-(D-Glu)-αMeY-LIEGGK((εK)-(2-[2-(2-Am … (peptide)
peptide: B1 peptide
modifications: Aib2, αMeF(2F)6, 4Pal10, αMeL13, Orn16, Aib20, D-Glu24, αMeY25; acylated K17, K31 (groups as in name); C-terminal amide
B10: Y-Aib-EGT-αMeF-TSD-4Pal-SI-αMeL-LD-Orn-K((2-[2-(2-Amino-ethoxy)-ethoxy]-acetyl)2-(γ-Glu)-CO-(CH2)10-CH3)AQ-Aib-EFI-(D-Glu)-αMeY-LIEGGK((2-[2-(2-Amino-ethoxy)-et … (peptide)
peptide: B1 peptide
modifications: Aib2, αMeF6, 4Pal10, αMeL13, Orn16, Aib20, D-Glu24, αMeY25; acylated K17, K31 (groups as in name); C-terminal amide
B11: Y-Aib-EGT-αMeF(2F)-TSD-4Pal-SI-αMeL-LD-Orn-K((2-[2-(2-Amino-ethoxy)-ethoxy]-acetyl)2-(γ-Glu)-CO-(CH2)12-CO2H)AQ-Aib-K((2-[2-(2-Amino-ethoxy)-ethoxy]-acetyl)2-(γ … (peptide)
peptide: B1 peptide with E21K, K31P
modifications: Aib2, αMeF(2F)6, 4Pal10, αMeL13, Orn16, Aib20, D-Glu24, αMeY25; acylated K17, K21 (groups as in name); C-terminal amide
B12: Y-Aib-EGT-αMeF(2F)-TSD-4Pal-SI-αMeL-LD-Orn-IAQ-Aib-K((2-[2-(2-Amino-ethoxy)-ethoxy]-acetyl)2-(γ-Glu)-(4-(4-tert-butylphenyl)butanoyl))FI-(D-Glu)-αMeY-LIK((2-[2- … (peptide)
peptide: B1 peptide with K17I, E21K, E28K, K31P
modifications: Aib2, αMeF(2F)6, 4Pal10, αMeL13, Orn16, Aib20, D-Glu24, αMeY25; acylated K21, K28 (groups as in name); C-terminal amide

Each binder was assayed against human glucagon receptor (human, UniProt P47871 26-477) (assay: cell-based or functional assay).

Which “cAMP EC50 (1.0% HSA)” value does the source give for B1 here?
The value was greater than 9.95 µM.

With B2 as the binder, how does the “cAMP EC50 (1.0% HSA)” value read?
Its value is greater than 9.95 µM.

Which “cAMP EC50 (1.0% HSA)” value does the source give for B3 here?
Its value is greater than 9.95 µM.

Which “cAMP EC50 (1.0% HSA)” value does the source give for B4 here?
The value was greater than 9.95 µM.

B5 was tested. Which “cAMP EC50 (1.0% HSA)” value did it give?
The value was greater than 9.95 µM.

For B6, which “cAMP EC50 (1.0% HSA)” value is on record?
The value was greater than 9.95 µM.

How did the “cAMP EC50 (1.0% HSA)” value turn out when B7 was run?
The value was greater than 9.95 µM.

How did the “cAMP EC50 (1.0% HSA)” value turn out when B8 was run?
The value was greater than 9.95 µM.

How did the “cAMP EC50 (1.0% HSA)” value turn out when B9 was run?
Its value is greater than 9.95 µM.

Which “cAMP EC50 (1.0% HSA)” value does the source give for B10 here?
Its value is greater than 9.95 µM.

B11 was tested. Which “cAMP EC50 (1.0% HSA)” value did it give?
The value was greater than 9.95 µM.

Which “cAMP EC50 (1.0% HSA)” value does the source give for B12 here?
Its value is greater than 9.95 µM.
